The values below come from publication PMC2898215.

The target of the data set is streptavidin (UniProt P22629 25-183). Nature of the data set: capillary electrophoresis.
Sequence of streptavidin (P22629 25-183): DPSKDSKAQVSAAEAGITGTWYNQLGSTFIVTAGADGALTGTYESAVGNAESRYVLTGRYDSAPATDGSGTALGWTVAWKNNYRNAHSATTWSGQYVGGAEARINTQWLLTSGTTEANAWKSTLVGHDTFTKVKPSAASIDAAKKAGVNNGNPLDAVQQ

B1: S10-103 minimal (structured_DNA)
DNA: TAGGACAAACGCACACGGCGCAGTGTTTTGACCTA
In turn, B1 gave a binding signal of 48 % bound.

B2: S10-115 minimal (structured_DNA)
DNA: CTTGTGTTTGCTCCCCGACGCAGGGGACACAAG
Molecule B2 gave a binding signal of 60 % bound.

B3: S10-104 minimal (structured_DNA)
DNA: CATATTTAGCGCGTGTGTCGCAACACCTATATATG
In turn, B3 yielded a binding signal of 53 % bound.

B4: S10-113 minimal (structured_DNA)
DNA: CAAACCTCGCGCCGATTGCAGGCAGGTTTG
In turn, B4 yielded a binding signal of 50 % bound.

B5: S10-101 minimal (structured_DNA)
DNA: CACGTAACGCATACGCCGCAGTATTTATGTG
As for B5, the binding signal was above 70 % bound.

B6: NRR (structured_DNA)
DNA: CTGTGAGACGACGCACCGGTCGCAGGTTTTGTCTCACAG
Molecule B6 gave a binding signal of 33 % bound.
